Experiments:
Jak2 = Jak2 (UniProt O60674); test: phosphorylation enrichment, bacterial display (enrichment ratio); higher = better substrate or ligand; peptides without Tyr show the background
FGFR1 = FGFR1 (UniProt P11362); test: as above
FGFR3 = FGFR3 (UniProt P22607); test: as above
Fyn = Fyn (UniProt P06241); test: as above
Hck = Hck (UniProt P08631); test: as above
c-Src = test: as above
Fes = Fes (UniProt P07332); test: as above
AncSZ = test: as above
MERTK = MERTK (UniProt Q12866); test: as above
EPHB2 = EPHB2 (UniProt P29323); test: as above
Sequence of EPHB2 (P29323 whole entry, looked up): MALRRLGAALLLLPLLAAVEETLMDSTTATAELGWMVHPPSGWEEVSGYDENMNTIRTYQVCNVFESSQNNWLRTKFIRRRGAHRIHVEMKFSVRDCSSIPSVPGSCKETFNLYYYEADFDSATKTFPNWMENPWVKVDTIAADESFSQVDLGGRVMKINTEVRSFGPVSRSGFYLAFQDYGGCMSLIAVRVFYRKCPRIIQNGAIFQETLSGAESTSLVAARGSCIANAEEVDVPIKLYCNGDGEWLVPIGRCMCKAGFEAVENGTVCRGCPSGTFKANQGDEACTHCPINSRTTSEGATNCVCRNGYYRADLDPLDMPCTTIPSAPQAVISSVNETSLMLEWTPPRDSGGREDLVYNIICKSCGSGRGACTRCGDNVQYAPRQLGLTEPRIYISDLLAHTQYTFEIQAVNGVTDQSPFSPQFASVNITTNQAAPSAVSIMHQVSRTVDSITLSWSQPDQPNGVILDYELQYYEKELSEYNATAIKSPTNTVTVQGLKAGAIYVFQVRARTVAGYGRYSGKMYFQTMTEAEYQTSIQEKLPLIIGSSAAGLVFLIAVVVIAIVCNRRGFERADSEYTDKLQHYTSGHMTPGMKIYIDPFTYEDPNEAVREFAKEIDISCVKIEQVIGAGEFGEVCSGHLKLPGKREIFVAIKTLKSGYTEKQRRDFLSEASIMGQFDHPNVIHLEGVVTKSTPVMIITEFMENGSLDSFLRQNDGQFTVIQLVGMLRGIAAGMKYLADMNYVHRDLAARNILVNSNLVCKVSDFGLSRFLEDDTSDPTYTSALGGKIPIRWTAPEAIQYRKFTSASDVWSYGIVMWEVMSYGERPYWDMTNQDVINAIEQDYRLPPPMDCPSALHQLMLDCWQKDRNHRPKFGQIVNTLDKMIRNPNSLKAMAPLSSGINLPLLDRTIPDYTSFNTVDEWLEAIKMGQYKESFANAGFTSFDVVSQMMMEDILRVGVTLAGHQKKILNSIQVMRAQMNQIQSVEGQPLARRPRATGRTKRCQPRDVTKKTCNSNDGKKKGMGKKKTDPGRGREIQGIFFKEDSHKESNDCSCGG

Fer (mouse) = test: as above
c-Abl (mouse) = test: as above
EPHB1 = EPHB1 (UniProt P54762); test: as above
Sequence of EPHB1 (P54762 whole entry, looked up): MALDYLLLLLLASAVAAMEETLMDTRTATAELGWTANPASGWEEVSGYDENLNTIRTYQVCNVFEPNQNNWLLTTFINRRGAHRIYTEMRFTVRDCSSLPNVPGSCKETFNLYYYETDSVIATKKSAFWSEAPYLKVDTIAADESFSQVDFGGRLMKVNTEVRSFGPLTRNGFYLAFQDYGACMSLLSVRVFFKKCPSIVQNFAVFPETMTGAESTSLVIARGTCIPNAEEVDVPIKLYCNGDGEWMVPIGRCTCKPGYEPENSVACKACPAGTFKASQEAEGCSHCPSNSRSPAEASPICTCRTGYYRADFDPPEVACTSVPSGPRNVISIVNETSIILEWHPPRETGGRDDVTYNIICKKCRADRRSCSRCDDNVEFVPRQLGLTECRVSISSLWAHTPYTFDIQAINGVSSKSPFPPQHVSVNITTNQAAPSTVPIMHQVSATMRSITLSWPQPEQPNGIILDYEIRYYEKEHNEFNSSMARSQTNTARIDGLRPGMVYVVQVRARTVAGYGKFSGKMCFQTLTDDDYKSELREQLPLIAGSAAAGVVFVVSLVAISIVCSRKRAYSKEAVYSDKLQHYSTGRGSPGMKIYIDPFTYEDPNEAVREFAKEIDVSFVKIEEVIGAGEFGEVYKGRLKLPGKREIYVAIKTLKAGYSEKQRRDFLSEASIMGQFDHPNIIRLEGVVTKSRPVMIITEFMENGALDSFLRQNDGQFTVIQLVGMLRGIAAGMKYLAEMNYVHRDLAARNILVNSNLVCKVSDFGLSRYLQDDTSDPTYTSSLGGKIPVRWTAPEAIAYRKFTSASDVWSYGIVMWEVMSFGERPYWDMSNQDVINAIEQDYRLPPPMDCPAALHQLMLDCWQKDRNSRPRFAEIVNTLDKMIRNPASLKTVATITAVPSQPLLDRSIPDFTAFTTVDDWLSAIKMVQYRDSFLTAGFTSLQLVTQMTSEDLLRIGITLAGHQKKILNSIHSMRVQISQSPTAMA

Grb2 SH2 = Grb2 SH2 (UniProt P62993); test: SH2 binding enrichment of the phosphorylated peptide, bacterial display (enrichment ratio); higher = better substrate or ligand; peptides without Tyr show the background
Sequence of Grb2 SH2 (P62993 whole entry, looked up): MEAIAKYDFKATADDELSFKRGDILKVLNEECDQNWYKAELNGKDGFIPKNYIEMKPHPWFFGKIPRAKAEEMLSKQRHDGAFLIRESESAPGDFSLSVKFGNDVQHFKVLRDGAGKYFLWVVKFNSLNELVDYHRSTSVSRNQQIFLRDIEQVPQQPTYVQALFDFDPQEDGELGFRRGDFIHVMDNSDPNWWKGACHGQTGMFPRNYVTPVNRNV

SHP2-C SH2 = test: as above
c-Src SH2 = test: as above
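For SH2 binding enrichment of the phosphorylated peptide, bacterial display in this document: peptide library displayed on the E. coli surface as eCPX fusions, selected cells deep-sequenced, score is each peptide's frequency after selection divided by its frequency in the input.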
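For phosphorylation enrichment, bacterial display in this document: 11-residue human phosphosite peptides and single-mutation variants displayed on the E. coli surface, counted by deep sequencing, each peptide's frequency after selection divided by its frequency in the unselected input library; frequency after pTyr selection over input frequency; kinase dosed for 20-30% of maximal phosphorylation in three min.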

Sequence of FGFR3 (P22607 whole entry, looked up): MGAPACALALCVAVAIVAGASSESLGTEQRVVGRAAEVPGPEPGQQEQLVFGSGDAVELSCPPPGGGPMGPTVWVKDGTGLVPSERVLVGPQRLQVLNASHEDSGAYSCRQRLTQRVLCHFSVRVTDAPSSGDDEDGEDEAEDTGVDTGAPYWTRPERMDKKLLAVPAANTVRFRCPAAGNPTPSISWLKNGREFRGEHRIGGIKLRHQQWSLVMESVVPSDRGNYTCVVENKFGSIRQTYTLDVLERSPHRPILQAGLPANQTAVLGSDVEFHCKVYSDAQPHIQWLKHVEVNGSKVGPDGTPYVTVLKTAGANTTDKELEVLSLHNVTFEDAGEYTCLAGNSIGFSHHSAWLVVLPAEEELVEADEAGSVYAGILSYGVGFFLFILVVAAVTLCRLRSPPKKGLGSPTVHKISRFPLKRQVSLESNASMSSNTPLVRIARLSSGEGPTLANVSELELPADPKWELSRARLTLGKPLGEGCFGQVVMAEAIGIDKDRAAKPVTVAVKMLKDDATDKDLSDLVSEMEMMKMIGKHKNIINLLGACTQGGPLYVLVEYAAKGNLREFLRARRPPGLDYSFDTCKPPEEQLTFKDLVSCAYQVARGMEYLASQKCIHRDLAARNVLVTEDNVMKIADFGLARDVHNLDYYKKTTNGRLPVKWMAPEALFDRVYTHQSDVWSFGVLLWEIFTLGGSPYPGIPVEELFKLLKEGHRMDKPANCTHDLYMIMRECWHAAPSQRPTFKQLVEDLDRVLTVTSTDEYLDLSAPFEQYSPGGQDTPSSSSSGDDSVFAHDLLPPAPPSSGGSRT
Sequence of Fes (P07332 whole entry, looked up): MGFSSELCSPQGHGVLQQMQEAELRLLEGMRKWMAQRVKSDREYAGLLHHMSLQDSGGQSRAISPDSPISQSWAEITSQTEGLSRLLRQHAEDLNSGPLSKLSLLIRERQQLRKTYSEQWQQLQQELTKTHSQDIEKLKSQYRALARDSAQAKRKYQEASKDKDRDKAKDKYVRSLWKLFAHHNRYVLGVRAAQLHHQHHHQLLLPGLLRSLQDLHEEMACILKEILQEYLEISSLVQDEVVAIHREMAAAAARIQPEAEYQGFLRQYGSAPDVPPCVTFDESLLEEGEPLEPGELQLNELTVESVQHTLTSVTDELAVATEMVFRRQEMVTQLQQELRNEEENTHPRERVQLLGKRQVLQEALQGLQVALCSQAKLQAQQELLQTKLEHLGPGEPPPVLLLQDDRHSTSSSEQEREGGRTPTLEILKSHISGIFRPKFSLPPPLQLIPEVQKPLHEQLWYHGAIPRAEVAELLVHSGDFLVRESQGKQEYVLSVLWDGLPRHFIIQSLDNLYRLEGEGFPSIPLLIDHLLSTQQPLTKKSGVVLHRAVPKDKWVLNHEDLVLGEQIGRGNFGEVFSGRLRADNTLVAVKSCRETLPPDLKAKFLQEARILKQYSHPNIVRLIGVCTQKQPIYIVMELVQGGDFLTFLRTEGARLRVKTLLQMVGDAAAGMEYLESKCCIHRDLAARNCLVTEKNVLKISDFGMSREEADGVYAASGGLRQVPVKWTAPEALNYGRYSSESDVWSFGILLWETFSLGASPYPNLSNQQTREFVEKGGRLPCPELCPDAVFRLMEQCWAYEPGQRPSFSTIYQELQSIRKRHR
Sequence of Hck (P08631 whole entry, looked up): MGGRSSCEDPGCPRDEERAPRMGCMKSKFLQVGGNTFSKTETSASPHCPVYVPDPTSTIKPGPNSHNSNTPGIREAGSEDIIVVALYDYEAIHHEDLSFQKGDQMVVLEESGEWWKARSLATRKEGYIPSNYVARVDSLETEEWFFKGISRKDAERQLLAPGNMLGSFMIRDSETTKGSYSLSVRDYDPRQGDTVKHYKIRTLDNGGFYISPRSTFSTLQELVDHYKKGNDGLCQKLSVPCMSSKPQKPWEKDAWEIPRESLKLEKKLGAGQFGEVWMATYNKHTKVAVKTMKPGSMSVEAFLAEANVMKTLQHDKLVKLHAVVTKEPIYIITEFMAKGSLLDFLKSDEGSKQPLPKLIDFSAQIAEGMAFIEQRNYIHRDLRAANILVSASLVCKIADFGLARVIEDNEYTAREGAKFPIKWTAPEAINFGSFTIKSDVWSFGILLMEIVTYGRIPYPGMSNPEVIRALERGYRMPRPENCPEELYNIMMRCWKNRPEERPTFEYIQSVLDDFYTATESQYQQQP
Sequence of Fyn (P06241 whole entry, looked up): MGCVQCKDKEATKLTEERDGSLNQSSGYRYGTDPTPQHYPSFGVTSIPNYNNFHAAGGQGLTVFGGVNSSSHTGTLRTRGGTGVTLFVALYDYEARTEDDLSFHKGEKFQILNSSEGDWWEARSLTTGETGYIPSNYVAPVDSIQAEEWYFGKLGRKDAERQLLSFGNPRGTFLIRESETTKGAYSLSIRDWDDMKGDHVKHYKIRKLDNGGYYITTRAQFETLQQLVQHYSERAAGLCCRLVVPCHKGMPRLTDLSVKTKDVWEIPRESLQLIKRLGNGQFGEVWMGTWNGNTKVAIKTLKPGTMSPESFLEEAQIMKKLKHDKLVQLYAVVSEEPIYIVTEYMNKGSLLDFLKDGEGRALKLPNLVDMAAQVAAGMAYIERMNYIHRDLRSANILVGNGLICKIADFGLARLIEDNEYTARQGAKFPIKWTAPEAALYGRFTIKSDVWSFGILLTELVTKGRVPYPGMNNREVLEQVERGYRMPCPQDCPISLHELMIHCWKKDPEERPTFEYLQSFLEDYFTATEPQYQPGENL

Sequence | phosphorylation enrichment (Jak2) | phosphorylation enrichment (FGFR1) | phosphorylation enrichment (FGFR3) | phosphorylation enrichment (Fyn) | phosphorylation enrichment (Hck) | phosphorylation enrichment (c-Src) | phosphorylation enrichment (Fes) | phosphorylation enrichment (AncSZ) | phosphorylation enrichment (MERTK) | phosphorylation enrichment (EPHB2) | phosphorylation enrichment (Fer (mouse)) | phosphorylation enrichment (c-Abl (mouse)) | phosphorylation enrichment (EPHB1) | SH2 binding enrichment (Grb2 SH2) | SH2 binding enrichment (SHP2-C SH2) | SH2 binding enrichment (c-Src SH2)
PSDLLYILDIQ [ITGA2B_Y845] | 2.24 | 1.35 | 1.91 | 2.82 | 1.57 | 4.22 | 2.33 | 2.77 | 2.82 | 1.06 | 1.32 | 1.17 | 1.07 | 1.19 | 0.492 | 0.571
AIQDAYMHITS [ADCY10_Y318] | 0.584 | 0.576 | 0.523 | 0.517 | 0.457 | 0.483 | 0.647 | 0.671 | 0.542 | 0.492 | 0.497 | 0.588 | 0.469 | 0.825 | 0.742 | 1.27
FETDFYRKGGK [INSR_Y1190_YF] | 0.6 | 0.435 | 0.472 | 0.381 | 0.418 | 0.482 | 0.758 | 0.629 | 0.468 | 0.639 | 0.319 | 0.539 | 0.621 | 0.875 | 0.776 | 0.502
FADIAYNFRHR [PAH_Y166_G171R_YF] | 0.487 | 0.317 | 0.44 | 0.407 | 0.374 | 0.415 | 0.652 | 0.577 | 0.405 | 0.425 | 0.348 | 0.537 | 0.343 | 0.888 | 0.872 | 0.547
RAILNYIASKY [GSTA3_Y74] | 0.942 | 0.652 | 0.89 | 0.719 | 0.594 | 0.81 | 1.59 | 1.44 | 0.466 | 0.795 | 0.748 | 0.92 | 0.665 | 1.19 | 0.747 | 1.17
RREWFYEVIIA [BACE1_Y260_V265A_YF] | 0.807 | 0.784 | 0.764 | 0.593 | 0.598 | 0.498 | 0.733 | 0.927 | 1.24 | 0.391 | 0.66 | 0.483 | 0.515 | 0.807 | 0.605 | 0.512
ILDEAYVMASM [EGFR_Y764_V769M] | 0.965 | 0.525 | 0.62 | 0.539 | 0.528 | 0.643 | 1.19 | 1.22 | 0.447 | 0.553 | 0.557 | 0.746 | 0.461 | 0.66 | 0.633 | 0.424
ALDHKYHGGGG [HBB_Y146_A143D] | 0.455 | 0.365 | 0.392 | 0.375 | 0.406 | 0.372 | 0.526 | 0.458 | 0.381 | 0.355 | 0.321 | 0.425 | 0.342 | 0.863 | 0.6 | 0.479
SVVVPYEPPDV [TP53_Y220_E224D] | 0.752 | 0.524 | 0.612 | 0.429 | 0.447 | 0.415 | 0.932 | 0.984 | 0.337 | 0.528 | 0.456 | 0.603 | 0.554 | 0.89 | 0.73 | 0.735
EKPAKYDDIKK [GAPDH_Y255] | 0.745 | 0.391 | 0.503 | 0.316 | 0.426 | 0.352 | 1.01 | 0.782 | 0.334 | 0.452 | 0.392 | 0.632 | 0.441 | 0.657 | 0.662 | 1.34
GDFFRSLAEVA [YWHAG_Y133_Y133S_YF] | 0.72 | 0.486 | 0.595 | 0.464 | 0.405 | 0.425 | 0.865 | 0.871 | 0.357 | 0.503 | 0.438 | 0.721 | 0.423 | 0.913 | 0.696 | 0.4
IKNSGYISQFL [EIF2AK3_Y585_R588Q_YF] | 0.404 | 0.445 | 0.474 | 0.531 | 0.458 | 0.385 | 0.579 | 0.531 | 0.327 | 0.458 | 0.377 | 0.625 | 0.434 | 0.908 | 0.878 | 0.573
VVIVLYFSLWK [SLC6A2_Y249] | 0.64 | 0.486 | 0.459 | 0.241 | 0.42 | 0.348 | 1.13 | 0.703 | 0.39 | 0.453 | 0.314 | 0.942 | 0.254 | 1.59 | 1.56 | 1.22
FRPHLYGTPSR [ADGRE2_Y670_S665F] | 0.611 | 0.747 | 0.511 | 0.546 | 0.948 | 0.572 | 0.842 | 0.682 | 0.513 | 0.458 | 0.945 | 0.718 | 0.481 | 1.98 | 1.65 | 1.77
SVGGLYRDMGA [CBX8_Y321_G317V] | 0.734 | 0.541 | 0.561 | 0.408 | 0.481 | 0.385 | 0.791 | 0.699 | 0.483 | 0.43 | 0.446 | 0.555 | 0.567 | 0.72 | 0.53 | 0.393
LLINKYGLSDH [SCP2_Y151_A155D] | 1.19 | 0.546 | 0.849 | 0.678 | 0.826 | 0.712 | 1.45 | 1.08 | 0.645 | 0.62 | 0.709 | 0.794 | 0.646 | 0.939 | 1.11 | 0.44
ARRHPYFFAPE [ALB_Y172_Y174F] | 0.726 | 2.85 | 1.86 | 0.58 | 0.402 | 0.721 | 0.746 | 1.09 | 0.588 | 0.635 | 0.559 | 0.538 | 0.546 | 0.821 | 0.566 | 0.525

Sequence | phosphorylation enrichment (Jak2) | phosphorylation enrichment (FGFR1) | phosphorylation enrichment (FGFR3) | phosphorylation enrichment (Fyn) | phosphorylation enrichment (Hck) | phosphorylation enrichment (c-Src) | phosphorylation enrichment (Fes) | phosphorylation enrichment (AncSZ) | phosphorylation enrichment (MERTK) | phosphorylation enrichment (EPHB2) | phosphorylation enrichment (Fer (mouse)) | phosphorylation enrichment (c-Abl (mouse)) | phosphorylation enrichment (EPHB1) | SH2 binding enrichment (Grb2 SH2) | SH2 binding enrichment (SHP2-C SH2) | SH2 binding enrichment (c-Src SH2)
TEALYYTDDTA [ADPRS_Y75] | 0.833 | 3.91 | 4.22 | 2.63 | 1.82 | 1.9 | 2.09 | 1.46 | 4.21 | 0.78 | 1.97 | 0.633 | 1.31 | 0.912 | 0.847 | 0.856
KLSCSYSHWSA [C4BPA_Y470] | 0.894 | 0.793 | 0.91 | 0.578 | 0.636 | 0.672 | 1.28 | 1.13 | 0.527 | 0.771 | 0.657 | 1.15 | 0.716 | 0.894 | 0.802 | 0.732
VDSAHYKLLET [DTX3L_Y385] | 0.517 | 0.485 | 0.657 | 0.485 | 0.543 | 0.401 | 0.722 | 0.665 | 0.419 | 0.574 | 0.427 | 0.466 | 0.355 | 0.793 | 0.67 | 0.517
IDQDKYAVHFI [FLNA_Y2388_R2391H] | 0.801 | 0.468 | 0.61 | 0.396 | 0.467 | 0.433 | 0.945 | 0.886 | 0.388 | 0.547 | 0.625 | 0.734 | 0.483 | 0.711 | 0.607 | 0.491
IGLHAYGDQFR [IDH1_Y135_R132L_YF] | 0.519 | 0.423 | 0.594 | 0.502 | 0.473 | 0.39 | 0.799 | 0.687 | 0.4 | 0.491 | 0.51 | 0.51 | 0.413 | 0.703 | 0.449 | 0.419
CPTIHYNFMCN [TP53_Y234_T230P_YF] | 0.916 | 0.687 | 0.79 | 0.557 | 0.655 | 0.603 | 1.17 | 1.09 | 0.501 | 0.596 | 0.646 | 0.757 | 0.576 | 1.41 | 1.97 | 2.71
LEFGDCHPLKP [VPS35L_Y32_Y32C] | 1.16 | 0.763 | 1.52 | 0.841 | 0.777 | 0.602 | 1.97 | 1.63 | 0.472 | 0.802 | 1.24 | 0.884 | 0.863 | 0.963 | 0.613 | 0.529
RYVTRHIYNRE [HLA-DQB1_Y62_Y62H] | 0.589 | 0.291 | 0.525 | 0.73 | 0.662 | 0.874 | 0.777 | 0.966 | 0.857 | 0.795 | 0.469 | 0.751 | 0.525 | 0.718 | 0.64 | 0.414
CTTIHYNYTCN [TP53_Y234_M237T] | 0.726 | 0.47 | 0.624 | 0.445 | 0.416 | 0.414 | 0.837 | 0.756 | 0.403 | 0.556 | 0.476 | 0.585 | 0.492 | 1.47 | 1.86 | 3.29
IITDYYVDMKF [MPP4_Y567_V562I] | 2.52 | 7.4 | 5.13 | 1.01 | 1.17 | 0.98 | 1.46 | 1.87 | 1.22 | 2.11 | 1.38 | 0.856 | 3.56 | 0.8 | 0.803 | 1.11
NMRSTYAKLAA [SEC22B_Y193_H190R] | 0.587 | 0.359 | 0.403 | 0.407 | 0.456 | 0.444 | 0.561 | 0.563 | 0.49 | 0.397 | 0.439 | 0.453 | 0.373 | 0.636 | 9.73 | 1.67
ADKAAYLQNLN [MYH1_Y389] | 0.617 | 0.458 | 0.637 | 0.645 | 0.61 | 0.601 | 0.747 | 0.718 | 0.522 | 0.52 | 0.53 | 0.488 | 0.44 | 0.659 | 0.73 | 0.39
ECKASYPGKIT [PRSS3_Y232] | 0.396 | 0.431 | 0.418 | 0.319 | 0.323 | 0.438 | 0.596 | 0.53 | 0.402 | 0.389 | 0.396 | 0.489 | 0.357 | 0.823 | 0.56 | 0.557
EAVSIYQFHGQ [CBLC_Y402] | 0.852 | 0.554 | 0.594 | 5.93 | 3.09 | 7.06 | 0.926 | 1.01 | 5.19 | 1.62 | 10.4 | 0.969 | 2.31 | 0.757 | 0.511 | 0.464
GSERDYTFDEL [EIF2S2_Y174_E177D_YF] | 1.21 | 0.583 | 0.871 | 0.474 | 0.528 | 0.639 | 1.18 | 1.25 | 0.515 | 0.564 | 0.582 | 0.837 | 0.577 | 0.919 | 0.681 | 0.508
GVLDIYGFEIL [MYO1A_Y382] | 0.978 | 0.579 | 0.787 | 2.92 | 1.59 | 1.76 | 1.14 | 1.14 | 0.41 | 0.541 | 0.694 | 0.695 | 0.903 | 0.793 | 0.574 | 0.343
